Experiments:
Assay in all cases: SPR (Biacore T100), antibody captured on protein A chip, receptor injected as analyte
FcγRIIIa-V158 = target: T1, FcγRIIIa-V158 (UniProt P08637 17-208, limits assumed)
T1 construct: It names the V158 allele but states no substitution against an entry; also called FcγRIIIa-V158 allele

FcγRIIb = target: T2, FcγRIIb (UniProt P31994 46-217, limits assumed)
T2 construct: also called FcγIIb receptor
T2 sequence (looked up): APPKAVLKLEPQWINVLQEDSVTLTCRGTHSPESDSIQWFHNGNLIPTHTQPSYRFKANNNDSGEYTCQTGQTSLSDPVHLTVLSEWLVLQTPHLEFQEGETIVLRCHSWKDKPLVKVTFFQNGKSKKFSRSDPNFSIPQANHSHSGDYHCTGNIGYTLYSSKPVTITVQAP

FcγRIIIa-F158 = target: T3, FcγRIIIa-F158 (UniProt P08637 17-208, limits assumed)
T3 construct: also called FcγRIIIa-F158 allele
T3 sequence (P08637 17-208 limits assumed): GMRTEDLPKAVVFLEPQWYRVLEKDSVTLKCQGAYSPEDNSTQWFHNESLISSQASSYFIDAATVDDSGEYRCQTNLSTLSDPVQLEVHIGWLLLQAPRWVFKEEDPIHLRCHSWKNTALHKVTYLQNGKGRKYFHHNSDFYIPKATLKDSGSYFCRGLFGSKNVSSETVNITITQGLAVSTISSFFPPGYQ

T1 sequence (P08637 17-208 F176V limits assumed): as the sequence (P08637 17-208 limits assumed) above, with F160V counted along it

Kd (FcγRIIIa-V158): 252 nM
Kd (FcγRIIb): 2000 nM
Kd (FcγRIIIa-F158): 1040 nM
B1: commercial rituximab (rituxan, Genentech Inc.) (antibody)
chain 1: not shown
chain 2: QIVLSQSPAILSASPGEKVTMTCRASSSVSYIHWFQQKPGSSPKPWIYATNLASGVPVRFSGSGSGTSYSLTISRVEAEDAATYYCQQWTSNPPTFGGGTKLEIKRTVAAPSVFIFPPSDEQLKSGTASVVCLLNNFYPREAKVQWKVDNALQSGNSQESVTEQDSKDSTYSLSSTLTLSKADYEKHKVYACEVTHQGLSSPVTKSFNRGEC
